# Data: patent US20200261595A1
# Target: insulin receptor of isolated rat adipocytes (rat) (UniProt P15127)
# Assay: cell-based or functional assay
# Chain of insulin receptor of isolated rat adipocytes (rat) (P15127 27-1383): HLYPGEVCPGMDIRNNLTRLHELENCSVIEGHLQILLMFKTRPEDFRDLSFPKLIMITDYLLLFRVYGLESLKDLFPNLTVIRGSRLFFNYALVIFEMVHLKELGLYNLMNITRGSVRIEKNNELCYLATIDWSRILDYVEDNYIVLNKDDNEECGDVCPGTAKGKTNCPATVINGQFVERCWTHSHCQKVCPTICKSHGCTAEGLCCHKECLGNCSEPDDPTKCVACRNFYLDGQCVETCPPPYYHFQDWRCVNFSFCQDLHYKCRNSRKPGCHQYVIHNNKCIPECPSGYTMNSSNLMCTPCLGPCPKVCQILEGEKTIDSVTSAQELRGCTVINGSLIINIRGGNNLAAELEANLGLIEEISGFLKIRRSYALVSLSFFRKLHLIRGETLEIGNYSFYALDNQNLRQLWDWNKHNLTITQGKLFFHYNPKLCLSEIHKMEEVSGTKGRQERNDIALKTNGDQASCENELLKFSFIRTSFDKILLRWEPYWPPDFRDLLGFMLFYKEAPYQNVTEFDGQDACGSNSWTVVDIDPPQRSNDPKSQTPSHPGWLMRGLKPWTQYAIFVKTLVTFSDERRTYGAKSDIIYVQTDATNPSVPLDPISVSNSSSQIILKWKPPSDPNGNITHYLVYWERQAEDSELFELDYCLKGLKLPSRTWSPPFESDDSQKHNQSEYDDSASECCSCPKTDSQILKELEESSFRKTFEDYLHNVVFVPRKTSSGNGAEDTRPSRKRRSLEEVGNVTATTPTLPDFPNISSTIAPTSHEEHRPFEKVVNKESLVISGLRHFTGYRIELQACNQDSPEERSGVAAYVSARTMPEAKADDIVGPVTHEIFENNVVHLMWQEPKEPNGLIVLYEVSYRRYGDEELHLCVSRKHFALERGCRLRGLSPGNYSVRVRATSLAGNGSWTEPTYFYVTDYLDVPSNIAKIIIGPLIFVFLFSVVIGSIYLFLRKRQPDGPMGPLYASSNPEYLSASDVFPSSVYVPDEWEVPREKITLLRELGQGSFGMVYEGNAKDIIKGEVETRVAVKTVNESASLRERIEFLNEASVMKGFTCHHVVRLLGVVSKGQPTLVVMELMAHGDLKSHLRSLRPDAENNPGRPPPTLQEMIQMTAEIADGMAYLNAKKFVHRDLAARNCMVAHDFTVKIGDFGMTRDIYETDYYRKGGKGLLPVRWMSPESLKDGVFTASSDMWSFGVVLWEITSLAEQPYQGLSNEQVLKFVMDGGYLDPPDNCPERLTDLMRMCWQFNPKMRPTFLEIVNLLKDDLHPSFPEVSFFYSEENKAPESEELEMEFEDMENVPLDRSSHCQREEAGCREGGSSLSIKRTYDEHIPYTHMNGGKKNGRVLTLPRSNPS
row,Lipogenesis in rat adipocytes [Potency (%)] Mean Value (% of human insulin),Substance
1,5.44,"(A14E, A21G, A22(GQEP)19, 98K^, A99P, B25H, B29R, desB30 human insulin)/(226A, 227G, 228P, 234A, 235K, des447 hIgG4-Fc(228-447)) 3,5-bis[(2-acetyl)amino]benzoyl conjugate (from UniProt P01861 109-325)"
2,0.87,"A14E, B(-78K^), B(-77P), B(-1)(GQAP)19, B25H, B29R, desB30 human insulin/(227A, 234A, 235K, 297E, 315Q, 384Q, des447 hIgG4-Fc(228-447)) 4-[bis[2-[(2-acetyl)amino]ethyl]amino]-4-oxo-butanoyl conjugate (from UniProt P01861 108-325)"
